# Patent US20150301024
# B1: recombinant human caspase 3 (protein)
# chain: SGISLDNSYKMDYPEMGLCIIINNKNFHKSTGMTSRSGTDVDAANLRETFRNLKYEVRNKNDLTREEIVELMRDVSKEDHSKRSSFVCVLLSHGEEGIIFGTNGPVDLKKITNFFRGDRCRSLTGKPKLFIIQACRGTELDCGIETDSGVDDDMACHKIPVEADFLYAYSTAPGYYSWRNSKDGSWFIQSLCAMLKQYADKLEFMHILTRVNRKVATEFESFSFDATFHAKKQIPCIVSMLTKELYFYH
# B2: recombinant human caspase 7 (protein)
# chain: AKPDRSSFVPSLFSKKKKNVTMRSIKTTRDRVPTYQYNMNFEKLGKCIIINNKNFDKVTGMGVRNGTDKDAEALFKCFRSLGFDVIVYNDCSCAKMQDLLKKASEEDHTNAACFACILLSHGEENVIYGKDGVTPIKDLTAHFRGDRCKTLLEKPKLFFIQACRGTELDDGIQADSGPINDTDANPRYKIPVEADFLFAYSTVPGYYSWRSPGRGSWFVQALCSILEEHGKDLEIMQILTRVNDRVARHFESQSDDPHFHEKKQIPCVVSMLTKELYFSQ
# Target: hXkr8-GFP (wild-type human Xkr8 fused to GFP at its C-terminus)
row,Protein,"cleavage of the GFP-fusion protein, Western blot with anti-GFP"
1,B1,caspase 3 and caspase 7 cleaved the wild-type but not 2DA mutant hXkr8
2,B2,caspase 3 and caspase 7 cleaved the wild-type but not 2DA mutant hXkr8
